A short description of this data set: soluble on expression in E. coli; label from the status in PepcDB or PDB records.
In the case of “MKKYQQLAEQLREQIASGIWQPGDRLPSLRDQVALSGMSFMTVSHAYQLLESQGYIIARPQSGYYVAPQAIKMPKAPVIPVTRDEAVDINTYIFDMLQASRDPSVVPFASAFPDPRLFPLQQLNRSLAQVSKTATAMSVIENLPPGNAELRQAIARRYALQGITISPDEIVITAGALEALNLSLQAVTEPGDWVIVENPCFYGALQALERLRLKALSVATDVKEGIDLQALELALQEYPVKACWLMTNSQNPLGFTLTPQKKAQLVALLNQYNVTLIEDDVYSELYFGREKPLPAKAWDRHDGVLHCSSFSKCLVPGFRIGWVAAGKHARKIQRLQLMSTLSTSSPMQLALVDYLSTRRYDAHLRRLRRQLAERKQRAWQALLRYLPAEVKIHHNDSGYFLWLELPEPLDAGELSLAALTHHISIAPGKMFSTGENWSRFFRFNTAWQWGEREEQAVKQLGKLIQERL”, the “soluble on expression in E. coli” value is on record as “not soluble”.

“MSLSYEYFPGFYDRLMDSELYDEWLEFSADFIGDAPKKVLDLACGTAEFALRLSFSGHQVTGVDLSKEMVAVAKEKVAAAEIDLPIIEQDMSKLALKQTFDVVTCFCDSLNYLETEQALEATIQAVSAHLEPNGLFLFDVHSVFKIEQGFKDYSYGDSDEEISTIWNSFPGEHPHSIEHELTFYILGEDDTYNRVDELHKERTYPIATYENLLKKFGFTKIDIYADFSHEKPNKTSERIFFAARKEGHHHHHH”: the “soluble on expression in E. coli” value is recorded as “soluble”.

With “MDYLPLFADLKQRPVLIVGGGEVAARKIELLHRAGAQVWVVAQTLSSELEQQYQDGRIHWLAQDFLPEQLDNVFLVIAATNDTVLNAAVFAAADQRCILANVVDDQPLCSFIFPSIVDRSPLVVAISSSGQAPVLARILREKLEALLPTRLSDMAAIAGRWRGRVKQHMASMGERRRFWEHAFSGRFASLISRGQLTEAENELQLSLEGQHRALGEVALVGAGPGDAGLLTLRGLQVMQQADVVLYDHLVSPEVLDLVRRDAERICVGKRAGAHSVTQEATNQLLVTLAQQGKRVVRLKGGDPFIFGRGGEELQVVAQAGIPFQVVPGVTAAAGATAYAGIPLTHRDHAQSVTFITGHCRPDGDDLDWQTLARGRQTLAIYMGTVKAAAISQQLIAHGRSSTTPVAVIGRGTRVDQQVLIGTLAQLESLAQQAPTPALLVIGEVVNLHHQIAWFGQQPQTESAISPSVVNLA”, the “soluble on expression in E. coli” value was “not soluble”.

For the sequence “MRKRKPLDYYLSLKYPVLLVAEPEGGYTALHPDLEGCVSVGETPEEALANLEEARRLWLEAAYEHGDEIPLPSTEREYSGRVLVRMPKSLHRRLDEEAKAEGVSLNQYIVSLPAERSSLRALKRELTRTGRAAEAPDSWEWGTSSGGGIWTGVLA”, the “soluble on expression in E. coli” value is given as “soluble”.

For the sequence “MSLSDRWDQTGLKTRVDGVLRSFLDEEAAHLAAVDAALAPVADQLRKAAGHGKRLRAAFCYWGWRAAGQPESDALVRAAASMELVHAAAVVHDDLIDDSRLRHGLPTAHVALEAVLARDGRPDARTAARSLAMLVGDQLMVLAGLLFTTSGLPAAYLARARDLWAVLARELVAGECLEILHTGGPPDTGTSLKVVRYKTAKYTVEHPLLIGGLLAGAAPALRDTYRAYALPLGEAFQLRDDLLGLFGDPERTGKASLDDLRAHRPTALLAETWKAADASQRQWLRRLLGRDDLDATHLHDVRRLMRELNAPQRVEQMIADRVERATRALDGAGTPPHARRALRELAQQATDRTHEGHHHHHH”, the “soluble on expression in E. coli” value is recorded as “soluble”.

“MGSDKIHHHHHHQDGNQPALVDALVVNARTPGPAWWSVSKGDKKVWVLGIGAPVPADAKWDGRAFERRVKASRQLILVPPSKTRFEKNTIKADRKWLDELTEAERARLAEVATQTGRKLEFYTLFRPNFAGLLINSELQARAKPKMGKLLDLSVRARRLGARLVPAGGLDAQAMKASFQVGGKDSLICLRWAMRPRDAAALREQRAQAWMRGDVRTLLVGPAAYDPCVQAMAAMQASLENNEGALANTIAATLDRGDGAVALVGLVPLLREGGVLDQLRKRGYLIETPAQMDDED”: the “soluble on expression in E. coli” value is given as “not soluble”.

On to “MGSDKIHHHHHHMRVKYFGTDGIRGIFGETLTDELAFKVGKALGEIVGEGKVIVGKDTRVSGDSLEAAISAGLTSMGVDVLLCGILPTPAVALLTRITRSFGVVISASHNPPEYNGIKVLKGGYKIPDEMEAEIEKRLENGSFLTRSVVGRTKSFREGRDMYIGAVLEMFRDLDLTGEMVSLDLANGATTTTAREVFEFLGAKVEVFNDSQDGLLINQGCGATHPRFLAEEMKNGKVGFTFDGDGDRVIAVDEERNVVNGDRIIGILAVGLKEEGRLNSDTVVGTVMTNGGLEDFLKEKGIRLLRTKVGDKYVLEKMLESGANLGGERSGHIIILDRSTTGDGLITALELMRVLKRSGRKLSDFAKEIPDYPQITKNVRRTERMSLENENLRKIVEESTSRGYRVVIRPSGTEPVIRITVEGKDREEIEKIVEEISRVLES”, for which the “soluble on expression in E. coli” value is “not soluble”.

Regarding “MGSDKIHHHHHHMLSVSSLDGEWNITEVDGQKISTERMPFIGFDVAQKRIYGNSGCNRMMGSFEADSLKPGTLKFGQIGSTRMMCPDMKTEQMVLGALDKVTSFQTVSDKPDVITLCNQDGQPLMTLEKKAAPEVSLSDLSGEWVIELVNGKKIVGTAEVTPFIGFNLDESRIYGNVGCNTINGALMQEDGKPNSLRFDNVATTMMMCPDMETETIVLNALNETKSFSMKDDKVYLLGENGNELLVLKKQ”, the “soluble on expression in E. coli” value is given as “not soluble”.

Regarding “MTPLSSPLSQYWQTVVERLPEGFTETSLSVQAKSVLTFSDFALDSVIAHPEWLAELESASPQADEWRHYAGWLQEALAGVCDDASLMRELRFFRRRIMVRIAWAQTLSLVDDETILQQLSHLAETLIVGARDWLYAACCREWGTPCNPQGVPQPLLILGMGKLGGGELNFSSDIDLIFAWPEHGETRGGRRELDNAQFFTRLGQRLIKALDQPTMDGFVYRVDMRLRPFGDSGPLVLSFAALEDYYQEQGRDWERYAMVKARLMGDNDDAWSRELRAMLRPFVFRRYIDFSVIQSLRNMKGMIAREVRRRGLKDNIKLGAGGIREIEFIVQVFQLIRGGREPSLQSRSLLPTLDAIAALHLLPENDVAQLRVAYLFLRRLENLLQSINDEQTQTLPADDLNRARLAWGMKAENWPQLVGELTDHMANVRRVFNELIGDDEADTPQEEERSEPWREVWQDALQEDDSTPVLAHLADEERRQVLTLIADFRKELDKRPIGPRGRQVLDQLMPHLLADVCSREDAAVTLSRITPLLAGIVTRTTYLELLSEFPGALKHLIMLCAASPMIASQLARYPLLLDELLDPGTLYQPTATDAYRDELRQYLLRVPEEDEEQQLEALRQFKQAQLLRIAAADIAGTLPVMKVSDHLTWLAEAMIDAVVQQAWTQMVARYGQPAHLDERQGRGFAVVGYGKLGGWELGYSSDLDLIFLHDCPMDVMTNGEREIDGRQFYLRLAQRIMHLFSTRTSSGILYEVDARLRPSGAAGMLVTSADAFADYQQHEAWTWEHQALVRARVVYGDPQLTSQFDAVRRTIMTTARDGKTLQTEVREMREKMRAHLGNKHRDRFDIKADEGGITDIEFIAQYLVLRYAHEKPKLTRWSDNVRILELLAQNGIMDEHEAQALTVAYTTLRDELHHLALQELPGHVAQTCFSKERALVQASWRKWLVAV”, the “soluble on expression in E. coli” value is reported as “not soluble”.

For “MNMLEKVQSQLEHLSKSERKVADVILAAPGRSIHLSIAMLAQEANVSEPTVNRFCRSMNTRGFPDFKLHLAQSLANGTPYVNRNVDEDDSVEAYTGKIFESAMASLDHVRQSLDKSAVNRAVDLLTQAKKIAFFGLGSSAAVAHDAMNKFFRFNVPVIYSDDIVLQRMSCMNCSDDDVVVLISHTGRTKSLVELAQLARENDAMVIALTSAGTPLAREATLAITLDVPEDTDIYMPMVSRLAQLTVIDVLATGFTLRRGAKFRDNLKRVKEALKESRFDKELLIKSDDR”, the “soluble on expression in E. coli” value was “not soluble”.

On to “MPTALIADDEPNLSAELAERLAELWPELEIVAMPRNGVDTLAALNAARPDIAFLDIRMPGIDGLKLASLVPDVHVVFVTAYDEYAVEAFDRSAIDYLLKPVTDERLLRCIAKLQRGGFAPPGAQALSDARMPKEPTLIRWLTVGLKDTTRLVSVDDVLYFQALDKYTEVVTAGERHVIRTPLKELLQRLDQDRFAQVHRGVIVAYAAIDRIERDLLGRLCIHLHGHRDVLPVSRAYAGLFKHM”, for which the “soluble on expression in E. coli” value is “not soluble”.

For “MSLLITAGVIALGFNFKRFQNEYDWLTLKPEQKLNVPLVNQLPDLPNGCEVTSLAMLLKYYDINVSKLELSSNIKHVSSFVGNNYRGNPHVGFVGYMSIKNAGWCVYNEPLYNVARKYTKRIRNYTGNDFVQVLKLVSKRHPVVIITTLKFDRVNDMQTWSTKQGKVHVTPSSHACVITGYNKKKGIVYVNDPYGVKNKKVSLKKIEASYNQQGKQALYIEEGHHHHHH”, the “soluble on expression in E. coli” value is listed as “soluble”.

Regarding “MSLTNFSQQHLPLVEKVMVDFIAEYTENERLKEAMLYSIHAGGKRLRPLLVLTTVAAFQKEMETQDYQVAASLEMIHTYSLIHDDLPAMDDDDLRRGKPTNHKVFGEATAILAGDGLLTGAFQLLSLSQLGLSEKVLLMQQLAKAAGNQGMVSGQMGDIEGEKVSLTLEELAAVHEKKTGALIEFALIAGGVLANQTEEVIGLLTQFAHHYGLAFQIRDDLLDATSTEADLGKKVGRDEALNKSTYPALLGIAGAKDALTHQLAEGSAVLEKIKANVPNFSEEHLANLLTQLQLREGHHHHHH”, the “soluble on expression in E. coli” value is reported as “soluble”.

For “MVSDEDELNLLVIVVDANPIWWGKQALKESQFTLSKCIDAVMVLGNSHLFMNRSNKLAVIASHIQESRFLYPGKNGRLGDFFGDPGNPPEFNPSGSKDGKYELLTSANEVIVEEIKDLMTKSDIKGQHTETLLAGSLAKALCYIHRMNKEVKDNQEMKSRILVIKAAEDSALQYMNFMNVIFAAQKQNILIDACVLDSDSGLLQQACDITGGLYLKVPQMPSLLQYLLWVFLPDQDQRSQLILPPPVHVDYRAACFCHRNLIEIGYVCSVCLSIFCNFSPICTTCETAFKISLPPVLKAKKKKLKVSA”, the “soluble on expression in E. coli” value was “not soluble”.

As for “MGSDKIHHHHHHMNAALWISKTGLDAQTKDIAVISNNLANASTIGFKKSRAVFEDLLYQNINQPGGRTAQDTEAPSGLMLGAGTKVVATQKIHTQGDMITSDNALDLMIQGEGFFEIQMPDGSSAYSRNGQFTMDDEGNMVTPGAGYMIQPQVTIPEDALSIIVSQDGEVSVTLQGQPDPAVVGQINLINFVNPTGLQPIGQNLYTETAVSGAPQEGVPGLEGYGMLVQGALETSNVNTTEELVNLIESQRVYEMNSKVISAVDEMLSYINQQM”, the “soluble on expression in E. coli” value was “not soluble”.

As for “MNEFEDLLNSVSQVETGDVVSAEVLTVDATQANVAISGTGVEGVLTLRELTNDRDADINDFVKVGEVLDVLVLRQVVGKDTDTVTYLVSKKRLEARKAWDKLVGREEEVVTVKGTRAVKGGLSVEFEGVRGFIPASMLDTRFVRNAERFVGQEFDTKIKEVNAKENRFILSRREVVEAATAAARAEVFGKLAVGDVVTGKVARITSFGAFVDLGGVDGLVHLTELSHERNVSPKSVVTVGEEIEVKILDLNEEEGRVSLSLKATVPGPWDGVEQKLAKGDVVEGTVKRLTDFGAFVEVLPGIDGLVHVSQISHKRIENPKEALKVGQEVQVKVLEVNADAERVSLSIKALEERPAQEEGQKEEKRAARPRRPRRQEKRDFELPETQTGFSMADLFGDIELLEHHHHHH”, the “soluble on expression in E. coli” value was “soluble”.

On to “MVSKKKALEMIDVIANMFPDAECELKHDNPFELTIAVLLSAQCTDVLVNRVTTELFKKYKTPEDYLAVSDEELMNDIRSIGLYRNKAKNIKKLCQSLIDQFNGEIPQTHKELESLAGVGRKTANVVMSVAFDEPSLAVDTHVERVSKRLGINRWKDNVRQVEDRLCSVIPRDRWNRSHHQLIFFGRYHCLARKPKCDICPLLEDCREGQKRYKASLKEA”, for which the “soluble on expression in E. coli” value is “not soluble”.
